Data on 2 molecules can be found in patent US20150210761A1 (SAMSUNG ELECTRONICS, published 2015).

For assay [1], the target named is Ang2 RBD mutant A449 (human) (UniProt O15123). Kind of assay: ELISA; antibody coated, FLAG-tagged RBD mutant, anti-FLAG-HRP detection. (ELISA stands for enzyme-linked immunosorbent assay.)
Assay [2] addresses T1, Ang2 mutant I434 (full-length Ang2) (human, UniProt O15123 19-496, limits assumed).
T1 sequence: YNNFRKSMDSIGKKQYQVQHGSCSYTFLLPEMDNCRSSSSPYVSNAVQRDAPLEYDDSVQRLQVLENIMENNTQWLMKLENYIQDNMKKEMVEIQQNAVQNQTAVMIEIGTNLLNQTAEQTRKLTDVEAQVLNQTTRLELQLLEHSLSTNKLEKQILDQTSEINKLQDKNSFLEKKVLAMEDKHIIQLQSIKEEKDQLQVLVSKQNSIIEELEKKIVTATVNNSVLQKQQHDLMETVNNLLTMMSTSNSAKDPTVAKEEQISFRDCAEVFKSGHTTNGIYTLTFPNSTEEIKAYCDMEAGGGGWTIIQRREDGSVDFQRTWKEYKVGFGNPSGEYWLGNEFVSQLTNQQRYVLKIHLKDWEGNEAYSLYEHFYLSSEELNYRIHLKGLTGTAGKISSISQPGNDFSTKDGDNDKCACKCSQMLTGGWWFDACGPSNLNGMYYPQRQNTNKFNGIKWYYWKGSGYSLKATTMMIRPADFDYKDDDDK
Description: ELISA; antibody coated, FLAG-tagged full-length Ang2 mutant, anti-FLAG-HRP detection. As for the experimental part:
(§1) A 96-well MaxiSorp™ flat-bottom plate (Nunc) was coated with 50 μl of each anti-Ang2 antibody (400 nM). After that, the plate was washed five times with 0.05% (v/v) Tween-20-containing PBS (PBST) and then blocked with 1% (v/v) BSA-containing PBS at a room temperature for 2 hours. S417, P419, N421, I434, D448, A449, P452, Y460, N467, K468, or F469 residue of Ang2 (SEQ ID NO: 27) was mutated (substituted) with alanine and tagged with FLAG (N-[…]-C; 1012 Da) and then 250 ng of them was each added to each well to the plate, which was allowed to react at a room temperature for 2 hours.
(§2) Thereafter, the plate was washed five times with 0.05% (v/v) Tween-20-containing PBS and then, an HRP-conjugated anti-FLAG antibody (SIGMA) diluted in 1% (v/v) BSA-containing PBS at 1:5,000 ratio (v/v) was added in the amount of 50 μl to each well to react at a room temperature for 1 hour, followed by washing five times with 0.1% (v/v) Tween-20-containing PBS.
(§3) Finally, 100 μl of TMB substrate (cell signal) was added to each well of the plate to induce color development for 3 minutes and then, the reaction was ceased by the addition of 100 μl of stop solution (Cell signaling) and OD450 values were measured on a plate reader (Molecular Devices). By comparing binding intensity to mutated Ang2 to binding intensity to non-mutated (native) Ang2, each epitope for the Ang2 antibodies was identified.

Assay [3] deals with T2, Ang2 mutant K468 (full-length Ang2) (human, UniProt O15123 19-496, limits assumed).
T2 sequence: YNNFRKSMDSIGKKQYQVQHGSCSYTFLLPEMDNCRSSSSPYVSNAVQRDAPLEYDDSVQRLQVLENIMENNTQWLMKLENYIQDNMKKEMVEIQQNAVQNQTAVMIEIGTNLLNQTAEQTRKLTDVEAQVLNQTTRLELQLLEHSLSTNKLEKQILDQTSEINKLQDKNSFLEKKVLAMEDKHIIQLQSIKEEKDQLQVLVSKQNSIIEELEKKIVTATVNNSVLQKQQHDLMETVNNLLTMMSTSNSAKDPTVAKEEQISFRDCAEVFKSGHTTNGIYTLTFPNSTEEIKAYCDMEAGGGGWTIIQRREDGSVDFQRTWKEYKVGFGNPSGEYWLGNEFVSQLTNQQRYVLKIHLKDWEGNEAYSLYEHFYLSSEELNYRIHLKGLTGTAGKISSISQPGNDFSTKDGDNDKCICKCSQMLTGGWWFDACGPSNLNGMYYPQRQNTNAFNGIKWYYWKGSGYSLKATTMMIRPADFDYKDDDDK
The assay is described as above. As for the experimental part: as §1, §2, §3

The target in assay [4] is T3, Ang2 mutant F469 (full-length Ang2) (human, UniProt O15123 19-496, limits assumed).
T3 sequence: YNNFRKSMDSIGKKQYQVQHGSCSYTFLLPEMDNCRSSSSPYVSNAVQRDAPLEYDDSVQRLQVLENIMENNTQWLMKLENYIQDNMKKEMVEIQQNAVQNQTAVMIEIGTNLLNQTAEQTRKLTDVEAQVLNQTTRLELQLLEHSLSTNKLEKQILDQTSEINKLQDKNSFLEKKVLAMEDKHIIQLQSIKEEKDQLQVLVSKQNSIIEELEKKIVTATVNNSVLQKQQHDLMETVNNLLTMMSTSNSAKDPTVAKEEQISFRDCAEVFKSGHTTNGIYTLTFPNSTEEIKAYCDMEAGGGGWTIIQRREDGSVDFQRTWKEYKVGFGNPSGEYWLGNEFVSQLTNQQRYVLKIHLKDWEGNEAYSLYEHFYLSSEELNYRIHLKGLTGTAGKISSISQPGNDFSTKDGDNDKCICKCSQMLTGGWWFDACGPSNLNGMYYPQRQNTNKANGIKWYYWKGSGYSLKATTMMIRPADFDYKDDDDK
The assay is described as above. As for the experimental part: as §1, §2, §3

B1: SAIT-ANG2-AB-m1A10 (antibody, V domains shown)
VH: QVQLQQSGAELMKPGASVKISCKATDYTFSSYWLEWLIQRPGHGLEWIGEILPGSGSTNYNEKFRGKATFTEDTSSNTAYMQLSSLTSEDSAVYYCARGNHNSYYYAMDYWGQGTSVTVSS
VL: DIVLTQSPASLAVSLGQRATISCRASESVDSYGNSFMHWYQQKPGQPPKLLIYRASNLDSGIPARFSGSGSRTDFTLTINPVEADDVATYYCQQSNEDPLTFGAGTKLELK
notes: also called hybridoma KCLRF-BP-00306
Turning to B1, in assay [1], the Binding (%) (mutant Ang2 / native Ang2) is 95.6%.

B2: SAIT-ANG2-AB-m8D3 (antibody, V domains shown)
VH: EVQLQQSGPELVKPGDSVKMSCKASGYTFTDYYMKWVRQSHGKSLQWVGEINPKNGDTFYNQIFKGKATLTVDKSSSTAYMQLTSLTSEDSAVYYCTRENDYDVGFFDYWGQGTSVTVSS
VL: TIVMTQTPKFLLVSAGDRITITCKASQSVSNDVAWYQQKPGQSPKLLIYYASNRYPGVPDRFTGSGYGTDFTFTISTVQAEDLAVYFCQQDYTSPWTFGGGTELEIK
notes: also called hybridoma KCLRF-BP-00308
Regarding B2, the “Binding (%) (mutant Ang2 / native Ang2)” value is 137% in assay [2], 20.5% in assay [3] and 41.9% in assay [4].
